Reference: patent US20250205169A1 (TIDAL THERAPEUTICS, published 2025)

Target: T1, CD206 on M2 macrophages derived from primary human PBMC (human (macrophages derived from primary …, UniProt P22897 19-1456))
T1 sequence (looked up): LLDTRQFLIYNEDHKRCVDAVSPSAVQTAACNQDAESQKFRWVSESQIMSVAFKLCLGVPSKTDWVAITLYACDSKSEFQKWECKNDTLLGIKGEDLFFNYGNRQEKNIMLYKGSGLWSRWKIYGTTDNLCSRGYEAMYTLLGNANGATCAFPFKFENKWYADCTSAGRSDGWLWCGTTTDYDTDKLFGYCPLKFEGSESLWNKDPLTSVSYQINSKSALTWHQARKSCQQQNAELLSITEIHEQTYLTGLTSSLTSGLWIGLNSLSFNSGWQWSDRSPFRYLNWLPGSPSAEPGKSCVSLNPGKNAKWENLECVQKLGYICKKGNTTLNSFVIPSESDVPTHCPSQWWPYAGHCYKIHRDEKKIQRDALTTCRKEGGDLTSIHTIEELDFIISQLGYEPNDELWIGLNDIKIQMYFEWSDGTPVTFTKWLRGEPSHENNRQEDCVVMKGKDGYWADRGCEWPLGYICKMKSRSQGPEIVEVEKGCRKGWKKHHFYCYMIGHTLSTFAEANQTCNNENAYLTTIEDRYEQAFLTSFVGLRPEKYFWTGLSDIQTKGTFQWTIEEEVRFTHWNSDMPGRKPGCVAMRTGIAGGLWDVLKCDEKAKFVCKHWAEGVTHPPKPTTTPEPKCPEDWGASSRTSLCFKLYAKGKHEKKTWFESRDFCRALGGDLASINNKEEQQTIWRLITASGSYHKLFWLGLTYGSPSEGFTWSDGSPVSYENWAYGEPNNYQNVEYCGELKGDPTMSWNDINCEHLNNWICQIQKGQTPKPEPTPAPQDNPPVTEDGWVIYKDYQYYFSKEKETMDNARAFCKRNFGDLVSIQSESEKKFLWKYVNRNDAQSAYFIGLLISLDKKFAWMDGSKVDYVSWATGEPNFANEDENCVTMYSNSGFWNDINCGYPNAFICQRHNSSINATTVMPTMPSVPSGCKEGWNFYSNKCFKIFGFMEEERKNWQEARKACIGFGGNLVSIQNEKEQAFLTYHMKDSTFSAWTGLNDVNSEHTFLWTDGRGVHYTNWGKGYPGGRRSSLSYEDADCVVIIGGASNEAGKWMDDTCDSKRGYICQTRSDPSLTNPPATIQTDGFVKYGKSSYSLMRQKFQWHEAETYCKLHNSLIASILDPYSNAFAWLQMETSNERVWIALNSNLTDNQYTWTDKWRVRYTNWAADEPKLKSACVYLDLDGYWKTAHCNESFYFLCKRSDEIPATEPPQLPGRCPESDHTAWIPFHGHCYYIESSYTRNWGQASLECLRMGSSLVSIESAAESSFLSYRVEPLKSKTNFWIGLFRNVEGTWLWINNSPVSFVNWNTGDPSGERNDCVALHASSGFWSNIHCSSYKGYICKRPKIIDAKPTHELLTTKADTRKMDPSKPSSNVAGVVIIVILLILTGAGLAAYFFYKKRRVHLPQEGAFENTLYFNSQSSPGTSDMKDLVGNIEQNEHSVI
Assay: cell-based or functional assay

GFP protein expression (MFI of transfected macrophages), fold difference between non-targeted and aCD206 targeted LNPs; Lipid 19A: 11 fold
GFP protein expression (MFI of transfected macrophages), fold difference between non-targeted and aCD206 targeted LNPs; Lipids 15 and 46: 2 fold
B1: anti-CD206 VHH targeting moiety (aCD206 VHH), as DSPE-PEG2k-anti-CD206 VHH conjugate inserted into LNPs (VHH)
VHH: QVQLQESGGGLVQAGGSLRLSCAASGFTDDDYDIGWFRQAPGKEREGVSCISSSDGSTYYADSVKGRFTISSDNAKNTVYLQMNSLKPEDTAVYYCAADFFRWDSGSYYVRGCRHATYDYWGQGTQVTVSS
modifications: DSPE-PEG(2k)-maleimide covalently coupled to the thiol of a C-terminal cysteine residue
